Data reported in patent US20180155451A1 (published 2018).

What was measured:
Test in all cases: SPR (Biacore), antibody captured on chip, soluble FcgR as analyte; experiment 1
[1] = biological target: T1, FcγRIa extracellular domain with C-terminal His tag (human, UniProt P12314 16-292)
T1 construct: extracellular domain; also called FcgRI; FcgRIa; not shown: His tag at the C terminus
Procedure: (§1) Antibodies of interest were analyzed for the interaction to FcgR according to the method described in Reference Example 8.
(§2) Analysis of interaction between obj ective antibody and the FcγR was carried out using Biacore T100 (GE Healthcare), Biacore T200, Biacore A100, and Biacore 4000. HBS-EP+ (GE Healthcare) was used as the running buffer, and the measurement temperature was set to 25° C. Chips produced by immobilizing the antigen peptide by the amine coupling method to a Series S sensor Chip CM5 (GE Healthcare), chips produced by allowing preliminarily biotinylated antigen peptides to interact with and immobilize onto a Series S Sensor Chip SA (certified) (GE Healthcare), chips produced by immobilizing Protein L (ACTIGEN, BioVision) to Series S Sencor Chip CM5 (GE Healthcare), or chips produced by immobilizing Protein A/G (Thermo Scientific) to Series S Sencor Chip CM5 (GE Healthcare) were used. Antibodies of interest were captured onto these chips, and allowed to interact to each FcγR diluted with running buffer. To regenerate and repeatedly use the chip, the antibodies captured onto the chip were washed off by reacting 10 mM glycine-HCl, pH 1.5.

[2] = biological target: T2, FcγRIIIa V type extracellular domain with C-terminal His tag (human, UniProt P08637 17-208)
T2 construct: extracellular domain; also called FcgRIIIa V; FcgRIIIaV; not shown: His tag at the C terminus
Procedure: as §1, §2

[3] = biological target: T3, FcγRIIb extracellular domain with C-terminal His tag (human, UniProt P31994 43-217)
T3 construct: extracellular domain; also called FcgRIIb; 2b; not shown: His tag at the C terminus
T3 sequence (looked up): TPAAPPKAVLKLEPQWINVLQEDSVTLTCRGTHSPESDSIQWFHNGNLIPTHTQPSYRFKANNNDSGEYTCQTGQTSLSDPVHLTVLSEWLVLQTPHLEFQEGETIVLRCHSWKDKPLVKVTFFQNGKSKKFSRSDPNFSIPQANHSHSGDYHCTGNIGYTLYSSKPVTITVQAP
Procedure: as §1, §2

[4] = biological target: T4, FcγRIIa R type extracellular domain with C-terminal His tag (human, UniProt P12318 34-217)
T4 construct: extracellular domain; also called FcgRIIa R; FcgRIIaR; not shown: His tag at the C terminus
T4 sequence (looked up): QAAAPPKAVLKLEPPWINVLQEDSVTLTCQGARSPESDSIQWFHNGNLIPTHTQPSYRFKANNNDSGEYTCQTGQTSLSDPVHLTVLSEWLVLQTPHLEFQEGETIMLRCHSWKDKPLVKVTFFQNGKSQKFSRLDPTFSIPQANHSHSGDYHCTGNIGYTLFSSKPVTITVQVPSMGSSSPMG
Procedure: as §1, §2

[5] = biological target: T5, FcγRIIIa F type extracellular domain with C-terminal His tag (human, UniProt P08637 17-208)
T5 construct: extracellular domain; also called FcgRIIIa F; FcgRIIIaF; not shown: His tag at the C terminus
Procedure: as §1, §2

[6] = biological target: T6, FcγRIIa H type extracellular domain with C-terminal His tag (human, UniProt P12318 34-217)
T6 construct: extracellular domain; also called FcgRIIa H; FcgRIIaH; not shown: His tag at the C terminus
T6 sequence (looked up): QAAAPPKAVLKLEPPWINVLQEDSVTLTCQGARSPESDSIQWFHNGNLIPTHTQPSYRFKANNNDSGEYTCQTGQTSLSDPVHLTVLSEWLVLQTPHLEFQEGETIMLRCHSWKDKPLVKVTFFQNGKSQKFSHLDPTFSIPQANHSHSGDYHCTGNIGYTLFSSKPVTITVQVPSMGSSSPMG
Procedure: as §1, §2

T5 sequence (P08637 17-208): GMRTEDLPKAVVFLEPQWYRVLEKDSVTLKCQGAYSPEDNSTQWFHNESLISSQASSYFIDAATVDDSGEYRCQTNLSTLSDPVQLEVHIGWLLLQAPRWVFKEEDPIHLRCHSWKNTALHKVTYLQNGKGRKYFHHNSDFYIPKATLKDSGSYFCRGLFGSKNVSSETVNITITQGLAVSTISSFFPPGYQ
T2 sequence (P08637 17-208 F176V): as the sequence (P08637 17-208) above, with F160V counted along it
T1 sequence (P12314 16-292): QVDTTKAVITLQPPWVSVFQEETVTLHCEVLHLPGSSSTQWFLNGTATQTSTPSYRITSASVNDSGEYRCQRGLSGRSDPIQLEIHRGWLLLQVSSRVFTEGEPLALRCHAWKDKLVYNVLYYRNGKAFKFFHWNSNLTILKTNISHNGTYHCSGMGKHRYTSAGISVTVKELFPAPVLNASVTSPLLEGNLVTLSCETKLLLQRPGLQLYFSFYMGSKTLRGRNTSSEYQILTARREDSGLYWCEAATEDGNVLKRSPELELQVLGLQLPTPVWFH

B1: H240-FA012/H240-FB056/L73-k0 (antibody, human IgG1, kappa)
heavy 1: QDQLVQSGAEVKKPGASVKVSCKASGFNIKDTYIQWVRQAPGQGLEWMGRIDPLRKQTKYREKFEGRVTITADTSTNTAYMELSSLRSEDTAVYYCVRSGREFDYWGQGTLVTVSSASTKGPSVFPLAPSSKSTSGGTAALGCLVKDYFPEPVTVSWNSGALTSGVHTFPAVLQSSGLYSLSSVVTVPSSSLGTKTYICNVNHKPSNTKVDKKVEPKSCDKTHTCPPCPAPEYYWGPSVFLFPPKPKDTLMISRTPEVTCVVVDVSDEEPKVKFNWYVDGVEVHNAKTKPREEQYNATYRVVSVLTVLHQDWLNGKEYKCKVSNKALPAPIEKTISKAKGQPREPQVYTLPPSRKEMTKNQVSLTCLVKGFYPSDIAVEWESNGQPENNYKTTPPVLDSDGSFFLYSKLTVDKSRWQQGNVFSCSVMHEALHNRYTQKSLSLSP
heavy 2: QDQLVQSGAEVKKPGASVKVSCKASGFNIKDTYIQWVRQAPGQGLEWMGRIDPLRKQTKYREKFEGRVTITADTSTNTAYMELSSLRSEDTAVYYCVRSGREFDYWGQGTLVTVSSASTKGPSVFPLAPSSKSTSEGTAALGCLVEDYFPEPVTVSWNSGALTSGVHTFPAVLQSSGLYSLSSVVTVPSSSLGTQTYICNVDHKPSNTKVDKKVEPKSCDKTHTCPPCPAPELLGGPSVFLFPPKPKDTLMISRTPEVTCVVVDVSHEEPEVQFNWYVDGVEVHNAETKPREEQYNSTYRVVSVLTVLHQDWLNGKEYKCKVSNDALPMPIEETISKAKGQPREPQVYTLPPSREEMTKNQVSLTCLVKGFYPSDIAVEWESNGQPENNYKTTPPVLDSDGSFFLYSKLTVDKSRWQQGNVFSCSVMHEALHNHYTQESLSLSP
light: DIQMTQSPSSLSASVGDRVTITCRASQDIHKYIAWYQQKPGQAPRLLIQYTSTLQPGVPSRFSGSGSGTDYTFTISSLQPEDIATYYCLQYEQLRTFGGGTKVEIKRTVAAPSVFIFPPSDEQLKSGTASVVCLLNNFYPREAKVQWKVDNALQSGNSQESVTEQDSKDSTYSLSSTLTLSKADYEKHKVYACEVTHQGLSSPVTKSFNRGEC
notes: Heterodimerized anti-EREG IgG1 antibody; A chain altered from H240-AK072, B chain altered from H240-BH076
Kd [1]: 0.1 nM | Kd [2]: 1.3 nM | Kd [3]: 1400 nM | Kd [4]: 280 nM | Kd [5]: 5 nM | Kd [6]: 86 nM

B2: H240-FA024/H240-FB059/L73-k0 (antibody, human IgG1, kappa)
heavy 1: QDQLVQSGAEVKKPGASVKVSCKASGFNIKDTYIQWVRQAPGQGLEWMGRIDPLRKQTKYREKFEGRVTITADTSTNTAYMELSSLRSEDTAVYYCVRSGREFDYWGQGTLVTVSSASTKGPSVFPLAPSSKSTSGGTAALGCLVKDYFPEPVTVSWNSGALTSGVHTFPAVLQSSGLYSLSSVVTVPSSSLGTKTYTCNVNHKPSNTKVDKKVEPKSCDKTHTCPPCPAPEYYWGPSVFLFPPKPKDTLMISRTPEVTCVVVDVSDEEPKVKFNWYVDGVEVHNAKTKPREEQYNATYRVVSVLTVLHQDWLNGKEYKCKVSNKALPAPIEKTISKAKGQPREPQVYTLPPSRKEKTKNQVSLTCLVKGFYPSDIAVEWESNGQPENNYKTTPPVLDSDGSFFLYSKLTVDKSRWQQGNVFSCSVMHEALHNRYTQKSLSLSP
heavy 2: QDQLVQSGAEVKKPGASVKVSCKASGFNIKDTYIQWVRQAPGQGLEWMGRIDPLRKQTKYREKFEGRVTITADTSTNTAYMELSSLRSEDTAVYYCVRSGREFDYWGQGTLVTVSSASTKGPSVFPLAPSSKSTSGETAALGCLVEDYFPEPVTVSWNSGALTSGVHTFPAVLQSSGLYSLSSVVTVPSSSLGTQTYICNVNHKPSNTKVDKKVEPKSCDKTHTCPPCPAPELLGGPSVFLFPPKPKDTLMISRTPEVTCVVVDVSHEEPEVQFNWYVDGVEVHNAETKPREEQYNSTYRVVSVLTVLHQDWLNGKEYKCKVSNDALPMPIEETISKAKGQPREPQVYTLPPSREEMTKNQVSLTCLVKGFYPSDIAVEWESNGQPENNYKTTPPVLDSDGSFFLYSKLTVDKSRWQQGNVFSCSVMHEALHNHYTQESLSLSP
light: DIQMTQSPSSLSASVGDRVTITCRASQDIHKYIAWYQQKPGQAPRLLIQYTSTLQPGVPSRFSGSGSGTDYTFTISSLQPEDIATYYCLQYEQLRTFGGGTKVEIKRTVAAPSVFIFPPSDEQLKSGTASVVCLLNNFYPREAKVQWKVDNALQSGNSQESVTEQDSKDSTYSLSSTLTLSKADYEKHKVYACEVTHQGLSSPVTKSFNRGEC
notes: as for B1
Kd [1]: 0.089 nM | Kd [2]: 1.3 nM | Kd [3]: 1600 nM | Kd [4]: 290 nM | Kd [5]: 4.4 nM | Kd [6]: 93 nM

B3: H240-FA024/H240-FB064/L73-k0 (antibody, human IgG1, kappa)
heavy 1: QDQLVQSGAEVKKPGASVKVSCKASGFNIKDTYIQWVRQAPGQGLEWMGRIDPLRKQTKYREKFEGRVTITADTSTNTAYMELSSLRSEDTAVYYCVRSGREFDYWGQGTLVTVSSASTKGPSVFPLAPSSKSTSGGTAALGCLVKDYFPEPVTVSWNSGALTSGVHTFPAVLQSSGLYSLSSVVTVPSSSLGTKTYTCNVNHKPSNTKVDKKVEPKSCDKTHTCPPCPAPEYYWGPSVFLFPPKPKDTLMISRTPEVTCVVVDVSDEEPKVKFNWYVDGVEVHNAKTKPREEQYNATYRVVSVLTVLHQDWLNGKEYKCKVSNKALPAPIEKTISKAKGQPREPQVYTLPPSRKEKTKNQVSLTCLVKGFYPSDIAVEWESNGQPENNYKTTPPVLDSDGSFFLYSKLTVDKSRWQQGNVFSCSVMHEALHNRYTQKSLSLSP
heavy 2: QDQLVQSGAEVKKPGASVKVSCKASGFNIKDTYIQWVRQAPGQGLEWMGRIDPLRKQTKYREKFEGRVTITADTSTNTAYMELSSLRSEDTAVYYCVRSGREFDYWGQGTLVTVSSASTKGPSVFPLAPSSKSTSESTAALGCLVKDYFPEPVTVSWNSGALTSGVHTFPAVLQSSGLYSLSSVVTVPSSNFGTQTYTCNVDHKPSNTKVDKTVEPKSCDKTHTCPPCPAPELLGGPSVFLFPPKPKDTLMISRTPEVTCVVVDVSHEEPEVQFNWYVDGVEVHNAKTKPREEQYNSTYRVVSVLTVLHQDWLNGKEYKCKVSNDALPMPIEETISKAKGQPREPQVYTLPPSREEMTKNQVSLTCLVKGFYPSDIAVEWESNGQPENNYKTTPPVLDSDGSFFLYSKLTVDKSRWQQGNVFSCSVMHEALHNHYTQESLSLSP
light: DIQMTQSPSSLSASVGDRVTITCRASQDIHKYIAWYQQKPGQAPRLLIQYTSTLQPGVPSRFSGSGSGTDYTFTISSLQPEDIATYYCLQYEQLRTFGGGTKVEIKRTVAAPSVFIFPPSDEQLKSGTASVVCLLNNFYPREAKVQWKVDNALQSGNSQESVTEQDSKDSTYSLSSTLTLSKADYEKHKVYACEVTHQGLSSPVTKSFNRGEC
notes: as for B1
Kd [1]: 0.095 nM | Kd [2]: 1.3 nM | Kd [3]: 1900 nM | Kd [4]: 330 nM | Kd [5]: 4.7 nM | Kd [6]: 110 nM
